From the RNAGym collection of RNA variant scans (doi:10.1093/molbev/msab373)

B1: Azoarcus group I ribozyme (parent)
chain: GUGCCUUGCGCCGGGAAACCACGCAAGGGAUGGUGUCAAAUUCGGCGAAACCUAAGCGCCCGCCCGGGCGUAUGGCAACGCCGAGCCAAGCUUCGGCGCCUGCGCCGAUGAAGGUGUAGAGACUAGACGGCACCCACCUAAGGCAAACGCUAUGGUGAAGGCAUAGUCCAGGGAGUGGCGAAAGUCACACAAACCGG

Variants of: B1
Assay: reverse-splicing fitness (ratio to wild type); higher = more active; in vitro selection; Mg2+ level not given
Procedure, shortened: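 An in vitro group I ribozyme library with randomized positions was T7-transcribed and gel-purified. In triplicate, 10 pmol RNA in EPPS pH 7.5 was reacted with 50 pmoles of a 30-nt RNA substrate for 1 h at 37 °C across several added MgCl2 levels (1–48 mM), then stopped with EDTA. Products were reverse transcribed from a substrate-complementary primer, PCR-amplified and sequenced (HiSeq 4000). Fitness is a variant's read proportion after selection over that before, normalised to wild type.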

Variant | reverse-splicing fitness
C82G A120G C150A C169A | 0.0117
C82G A120U A145C C150U C169A | 0.00185
C82G A120U A145C C150U C169G | 0.003
C82G A120U A145C C150U C169U | 0.00351
C82G A120U A145U C150A C169A U176C | 0.00199
C82G A120U A145U C150A C169A U176A | 0.00218
C82G A120U A145U C150A C169A U176G | 0.00156
C82G A120G C150U C169G U176A | 0.0177
C82G A120G C150U C169G U176G | 0.00485
C82G A120G C150U C169G U176C | 0.0246
C82G A120U C150G U176A | 0.0062
C82G A120U C150G U176C | 0.0103
C82G A120U C150G U176G | 0.00297
C82G A120U A145C C150A C169G U176G | 0.00136
C82G A120U A145C C150A C169G U176A | 0.0023
C82G A120U A145C C150A C169G U176C | 0.00207
C82G A120U A145G | 0.229
C82G A120U A145C | 0.204
C82G A120U A145U | 0.23
C82G A120U A145G C150U U176A | 0.0528
C82G A120U A145G C150U U176G | 0.0104

Variant | reverse-splicing fitness
C82G A120U A145G C150U U176C | 0.0776
C82G A120U A145C C150U C169A U176G | 0.00172
C82G A120U A145C C150U C169A U176C | 0.00192
C82G A120U A145C C150U C169A U176A | 0.00222
C82G A120G C150G C169G | 0.00959
C82G A120G C150G C169A | 0.00981
C82G A120G C150G C169U | 0.00956
C82G A120U A145C U176A | 0.0712
C82G A120U A145C U176G | 0.0211
C82G A120U A145C U176C | 0.0798
C82G A120U A145U C150G C169A | 0.00271
C82G A120U A145U C150G C169G | 0.00287
C82G A120U A145U C150G C169U | 0.00283
C82G A120U A145G C150A C169U U176G | 0.00206
C82G A120U A145G C150A C169U U176C | 0.00375
C82G A120U A145G C150A C169U U176A | 0.00465
C82G A120G C150G | 0.00725
C82G A120G C150U | 0.0196
C82G A120G C150A | 0.00962
C82G A120U A145C C150U C169G U176C | 0.00277
C82G A120U A145C C150U C169G U176G | 0.00162

Variant | reverse-splicing fitness
C82G A120U A145C C150U C169G U176A | 0.00262
C82G A120U C150A | 0.0159
C82G A120U C150G | 0.0146
C82G A120U C150U | 0.1
C82G A120U A145C C169G | 0.00562
C82G A120U A145C C169U | 0.00694
C82G A120U A145C C169A | 0.00201
C82G A120U A145G C150U | 0.168
C82G A120U A145G C150A | 0.0245
C82G A120U A145G C150G | 0.022
C82G A120U A145G C150G C169G | 0.0074
C82G A120U A145G C150G C169U | 0.00739
C82G A120U A145G C150G C169A | 0.00872
C82G A120G C150G C169G U176C | 0.00511
C82G A120G C150G C169G U176G | 0.00466
C82G A120G C150G C169G U176A | 0.00768
C82G A120U C150U C169U U176G | 0.00193
C82G A120U C150U C169U U176C | 0.00336
C82G A120U C150U C169U U176A | 0.00509
C82G A120U A145C C169G U176C | 0.00261
C82G A120U A145C C169G U176G | 0.00141

Variant | reverse-splicing fitness
C82G A120U A145C C169G U176A | 0.00239
C82G A120G U176G | 0.00803
C82G A120G U176C | 0.0208
C82G A120G U176A | 0.0149
C82G A120U C150A C169A U176G | 0.00205
C82G A120U C150A C169A U176A | 0.00432
C82G A120U C150A C169A U176C | 0.0035
C82G A120U A145G C169U | 0.00713
C82G A120U A145G C169A | 0.00321
C82G A120U A145G C169G | 0.00688
C82G A120U A145U C150A U176G | 0.00423
C82G A120U A145U C150A U176A | 0.0083
C82G A120U A145U C150A U176C | 0.0105
C82G A120U A145G C150U C169A U176A | 0.00578
C82G A120U A145G C150U C169A U176C | 0.0027
C82G A120U A145G C150U C169A U176G | 0.00223
C82G A120U C150U C169A U176A | 0.00417
C82G A120U C150U C169A U176C | 0.00267
C82G A120U C150U C169A U176G | 0.00166
C82G A120U A145C C150U U176A | 0.0158
